Reference: patent publication US20170088605A1 (Novartis, published 2017)
Read-outs that look alike come from different tables or passages of the source.

What was measured:
[1] = target: T1, BKV serotype II VP1 pentamer (BK virus serotype II, UniProt P14996 30-297); assay: SET (solution equilibrium titration) on VP1 pentamers
T1 construct: also called serotype II pentamers

[2] = target: T2, BKV serotype III VP1 pentamer (BK virus serotype III, UniProt P14996 30-297); assay: as above
T2 construct: also called serotype III pentamers

[3] = target: T3, BKV serotype I VP1 pentamer (BK virus serotype I, UniProt P03088 30-297); assay: as above
T3 construct: also called serotype I pentamers; BKV-VP1 serotype I pentameric protein

[4] = target: T4, BKV serotype IV VP1 pentamer (BK virus serotype IV, UniProt P14996 30-297); assay: as above
T4 construct: also called serotype IV pentamers

[5] = target: T5, BKV serotype IV chimeric infectious virus (VP1 of strain ITA-4) (BK virus serotype IV); assay: cell-based or functional assay
[6] = target: T6, BKV serotype III chimeric infectious virus (VP1 of isolate AS) (BK virus serotype III); assay: cell-based or functional assay
[7] = target: T7, BKV serotype I infectious virus (VP1) (BK virus serotype I, UniProt P03088 1-362); assay: cell-based or functional assay
T7 sequence (looked up): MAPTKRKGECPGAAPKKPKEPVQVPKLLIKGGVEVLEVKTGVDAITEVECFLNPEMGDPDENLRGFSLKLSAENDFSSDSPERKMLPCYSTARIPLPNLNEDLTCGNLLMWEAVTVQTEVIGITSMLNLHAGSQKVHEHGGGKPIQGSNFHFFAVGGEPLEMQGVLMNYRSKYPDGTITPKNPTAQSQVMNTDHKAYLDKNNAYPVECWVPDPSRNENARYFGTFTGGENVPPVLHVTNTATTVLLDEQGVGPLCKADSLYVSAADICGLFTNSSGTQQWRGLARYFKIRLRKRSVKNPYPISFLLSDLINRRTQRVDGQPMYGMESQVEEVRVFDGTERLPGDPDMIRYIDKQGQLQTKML

[8] = target: T8, BKV serotype II chimeric infectious virus (VP1 of isolate SB) (BK virus serotype II); assay: cell-based or functional assay
[9] = target: T5, BKV serotype IV chimeric infectious …; assay: cell-based or functional assay; remark: listed apart in the source
[10] = target: T6, BKV serotype III chimeric infectious …; assay: cell-based or functional assay; remark: listed apart in the source
[11] = target: T7, BKV serotype I infectious virus (VP1); assay: cell-based or functional assay; remark: listed apart in the source
[12] = target: T8, BKV serotype II chimeric infectious …; assay: cell-based or functional assay; remark: listed apart in the source
JCV VLP (consensus) [13] = target: T9, JCV VLP (consensus) (JC virus, UniProt P03089 1-354); assay: ELISA on plates coated with JCV VLPs, OD 450 nm
T9 construct: also called JCV VLPs; JC virus VLPs

[14] = target: T10, JCV infectious virus, isolates Mad-1 and Mad-4 (VP1) (JC virus); assay: cell-based or functional assay
JCV VLP (consensus) [15] = target: T9, JCV VLP (consensus); assay: ELISA on coated JCV VLPs
[16] = target: T10, JCV infectious virus, isolates Mad-1 …; assay: cell-based or functional assay; remark: listed apart in the source

B1: P8D11A (antibody, V domains shown)
VH: QVQLVESGGTLVQPGGSLRLSCAASGFTFSNYWMTWVRQAPGKGLEWVANIKKDGSEKYYVDSVRGRFTISRDNAKNSLFLQMNSLRPEDTAVYFCATVRSGRYFALDDWGQGTLVTVSS
VL: QSVLTQPPSVSVAPGKTARITCGGDNIGSRPVHWYQQKPGQAPILVVYDDSNRPSGIPERFSGSNSGNTATLTISRVEAGDEADYYCQVWSSSTDHPFGGGTKVTVLG
[1]
  Kd: 2.5 pM
[2]
  Kd: 3.7 pM
[3]
  Kd: 4.4 pM
[4]
  Kd: 2.9 pM
[5]
  neutralization EC50: 0.015 µg/mL
  neutralization EC90: 0.064 µg/mL
[6]
  neutralization EC50: 0.01 µg/mL
  neutralization EC90: 0.59 µg/mL
[7]
  neutralization EC50: 5 ng/mL
  neutralization EC90: 0.19 µg/mL
[8]
  neutralization EC50: 0.029 µg/mL
  neutralization EC90: 8.68 µg/mL

B2: EBB-C1975-A3 (antibody, V domains shown)
VH: EVQLVETGGGLVQPGGSLRLSCAASGFTVRRNYMSWVRQAPGKGLEWVSGIYSGGSTYYADSVKGRFTISRDYSKNTLSLQMNTLRVEDTAVYFCAREDEFWSGYSAGVDWGQGTLVTVSS
VL: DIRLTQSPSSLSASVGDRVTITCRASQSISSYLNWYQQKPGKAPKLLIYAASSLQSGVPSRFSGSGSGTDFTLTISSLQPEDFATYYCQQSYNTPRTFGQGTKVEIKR
[9]
  neutralization EC50: 0.13 µg/mL
  neutralization EC90: 8.18 µg/mL
[10]
  neutralization EC50: > 100 µg/mL
  neutralization EC90: > 100 µg/mL
[11]
  neutralization EC50: 0.045 µg/mL
  neutralization EC90: 4.84 µg/mL
[12]
  neutralization EC50: 0.12 µg/mL
  neutralization EC90: 25.2 µg/mL

B3: EBB-C1975-E7 (antibody, human IgG1, kappa, V domains shown)
VH: EVQLLESGGGLVRPGGSLRVSCAASGFTVSRNYMSWVRQAPGKGLEWVSGIYGGGRTYYAESVKGRFTISRDYSKNTLFLQMNTLRVEDTALYFCAREDEFWSGYSAGVDWGQGTLVTVSS
VL: DIQVTQSPSSLSASVGDRVTITCRASQSISSYLNWYQQEPGKAPKLLIYAASTLQTGVPSRFSGSGSGTDFTLTISSLQPEDFATYYCQQSYNTPRTFGQGTKVEIKR
[9]
  neutralization EC50: 0.35 µg/mL
  neutralization EC90: 8.61 µg/mL
[10]
  neutralization EC50: > 100 µg/mL
  neutralization EC90: > 100 µg/mL
[11]
  neutralization EC50: 0.01 µg/mL
  neutralization EC90: 2.62 µg/mL
[12]
  neutralization EC50: 0.33 µg/mL
  neutralization EC90: 9.61 µg/mL

B4: EBB-C1975-B5 (antibody, human IgG1, kappa, V domains shown)
VH: QVQLVQSGPGLVKPSETLSLTCTVSGGSTSAYYWTWIRQPPGKGLEWIGYISHSGSTNYNPSLKSRVTISADTSKNQLSLKVNSVTAADTAVYYCARLGDTASLSRFYYYIDVWGKGTTVTVSS
VL: EIVMTQSPDTLSLSPGERATLSCRASQSVSSNYLAWYQQKPGEAPRLLIYGASSRATGIPDRFSGSGSGTDFTLTISRLEPEDFAVYYCQQYGSSPPYTFGQGTRLEIKR
[9]
  neutralization EC50: 0.15 µg/mL
  neutralization EC90: 7.83 µg/mL
[10]
  neutralization EC50: 0.76 µg/mL
  neutralization EC90: > 100 µg/mL
[11]
  neutralization EC50: 0.033 µg/mL
  neutralization EC90: 5.53 µg/mL
[12]
  neutralization EC50: 0.42 µg/mL
  neutralization EC90: 24.2 µg/mL

B5: 2077-4-1 (antibody, V domains shown)
VH: EVQLQQSGPELVKPGASMKISCKASGYSFTGYTMNWVKQSHGENLEWIGLFNPYNGGTRYNQKFKGKATLTVDKSSSTAYMELLSLTSEDSAVYYCARLRNYGIGDDFFDYWGQGTTLTVSS
VL: DIVMTQSHKFMSTSVGDRVSITCKASQDVGTAVAWYQQKPGQSPKLLIYWASTRHTGVPDRFTGSGSGTDFTLTISNVQSEDLTDYFCQQYSNYPYTFGGGTKLEIK
JCV VLP (consensus) [13]
  EC50 (read off the curve): ~0.03 nM
[14]
  neutralization EC50: 0.138 µg/mL
  neutralization EC90: 3.06 µg/mL
JCV VLP (consensus) [15]
  IC50: 0.034 nM

B6: 2077-7-5 (antibody, V domains shown)
VH: EVQLQQSGPELVKPGASMKISCKASGYSFTGYTMNWVKQSHGKNLEWIGLFNPYNGGINYNQKFKGKATLTVDKSSSTAYMELLSLTSEDSAVYYCARLRYYGIGDDFFDYWGQGTSLTVSS
VL: DIVMTQSHKFMSTSVGDRVSITCKASRDVGTAVAWYQQKPGQSPKLLIYWASTRHTGVPDRFTGSGSGTDFTLTISNVQSEDLADYFCQQYSNYPYTFGGGTKLEMK
JCV VLP (consensus) [13]
  EC50 (read off the curve): ~0.6 nM
[14]
  neutralization EC50: 0.097 µg/mL
  neutralization EC90: 1.1 µg/mL
JCV VLP (consensus) [15]
  IC50: 0.651 nM

B7: 2077-10-1 (antibody, V domains shown)
VH: EVQLQQSGPELVKPGASMKISCKASGYSFTGYTMNWMKQGHGKNLEWIGLFNPYNGGPNYNQKFKGKATLTVDKSSSTAYMELLSLTSEDSAVYYCARLRYYGIGDDFFDYWGQGTTLTVSS
VL: DIVMTQSHKFMSTSVGDRVSITCKASQDVGTAVAWYQQKPGQSPKLLIYWASTRHTGVPDRFTGSGSGTDFTLTITNVQSEDLTDYFCQQYSSYPYTFGGGTKLEIK
JCV VLP (consensus) [13]
  EC50 (read off the curve): ~0.09 nM
[14]
  neutralization EC50: 1.49 µg/mL
  neutralization EC90: > 10 µg/mL
JCV VLP (consensus) [15]
  IC50: 0.1 nM

B8: 2077-26-1 (antibody, V domains shown)
VH: EVQLQQSGPDLVKPGASMKLSCKASGYSFTGYTMNWVKQSHGKNLEWIGLFNPYNGGPSYNQKFKGKATLTVDKSSSTAYMELLSLTPEDSAVYYCARLRYYGIGDDFFDYWGQGTTLTVSS
VL: DIVMTQSHKFMSTSVGDRVSITCKASQDVGTAVAWYQEKPGQSPKLLIYWASTRHTGVPDRFTGSGSGTDFTLTISNVQSEDLAYYFCQQYSNYPYTFGGGTKLEIK
JCV VLP (consensus) [13]
  EC50 (read off the curve): ~0.06 nM
[14]
  neutralization EC50: 0.702 µg/mL
  neutralization EC90: 3.2 µg/mL
JCV VLP (consensus) [15]
  IC50: 0.067 nM

B9: 2077-28-2 (antibody, V domains shown)
VH: EVQLQQSGPELVKPGASMKISCKASGYSFTGYTMNWVKQSHGKNLEWIGLFNPYNGGATYNQRFKGKATLTVDKSSSTAYMDLLSLTSEDSAVYYCTRLRKYGIGDDFFDYWGQGTTLTVSS
VL: DIVMTQSHKFMSTSVGDRVSITCKASQDVGTAVAWYQQKPGQSPKLLIYWASTRHTGVPDRFTGSGSGTDFTLTISNVQSEDLADYFCQQYSTYTYTFGGGTKLEIK
JCV VLP (consensus) [13]
  EC50 (read off the curve): ~0.09 nM
[14]
  neutralization EC50: 0.347 µg/mL
  neutralization EC90: 6.82 µg/mL
JCV VLP (consensus) [15]
  IC50: 0.088 nM

B10: P7G11A (antibody, human IgG1, lambda, V domains shown)
VH: QVQLQESGPGLVKPSQTLSLTCTVSGGSISSGGYSWSWIRQPPGKGLEYIGYIYYRGTTYYNPSLKSRVTISVDTSNNQISLKLSSVTAADTAVYYCARALTHLVGVGWFDPWGQGTMVTVSS
VL: QSVLTQPPSVSAAPGQKVTISCSGGSSNLGSNYVSWYQQLPGTAPKLLIYDNNKRPSGIPDRFSGSKSGTSATLGITGLQTGDEADYYCGTWDGSLSAWVFGGGTKVTVLG
[5]
  neutralization EC50: 0.015 µg/mL
  neutralization EC90: 0.53 µg/mL
[6]
  neutralization EC50: > 100 µg/mL
  neutralization EC90: > 100 µg/mL
[7]
  neutralization EC50: 0.8 ng/mL
  neutralization EC90: 0.34 µg/mL
[16]
  neutralization EC50: > 100 µg/mL
  neutralization EC90: > 100 µg/mL
[8]
  neutralization EC50: 0.074 µg/mL
  neutralization EC90: 2.89 µg/mL

B11: P7G11 (antibody, human IgG1, lambda, V domains shown)
VH: QVQLQESGPGLAKPSQTLSLTCSVSGGSISSGGYSWSWIRQPPGKGLEYIGYIYYRGTTYYNPSLKSRITMSVDTSNNQISLKLTSVTAADTAVYYCARALTHLVGVGWFDPWGQGTMVTVSS
VL: QSVLTQPPSVSAAPGQKVTISCSGGSSNLGSNYVSWYQQLPGTAPKLLIYDNNKRPSGIPDRFSGSKSGTSATLGITGLQTGDEADYYCGTWDGSLSAWVFGGGTKVTVLG
[5]
  neutralization EC50: 0.011 µg/mL
  neutralization EC90: 0.48 µg/mL
[6]
  neutralization EC50: > 100 µg/mL
  neutralization EC90: > 100 µg/mL
[7]
  neutralization EC50: 7 ng/mL
  neutralization EC90: 0.37 µg/mL
[16]
  neutralization EC50: > 100 µg/mL
  neutralization EC90: > 100 µg/mL
[8]
  neutralization EC50: 0.187 µg/mL
  neutralization EC90: 1.79 µg/mL
